Where a chain is given by its changes, count along the chain named. Names may count otherwise.
T1: WT lamin 1 to 300 fragment (lamin A/C residues 1-300) (human, UniProt P02545 1-300)
T1 construct: lamin A/C, residues 1-300 (head region 1-27 and part of the central rod domain); The abstract says purified proteins were used; also called lamin 1-300; lamin N-terminal 1 to 300 fragment
T1 sequence (looked up): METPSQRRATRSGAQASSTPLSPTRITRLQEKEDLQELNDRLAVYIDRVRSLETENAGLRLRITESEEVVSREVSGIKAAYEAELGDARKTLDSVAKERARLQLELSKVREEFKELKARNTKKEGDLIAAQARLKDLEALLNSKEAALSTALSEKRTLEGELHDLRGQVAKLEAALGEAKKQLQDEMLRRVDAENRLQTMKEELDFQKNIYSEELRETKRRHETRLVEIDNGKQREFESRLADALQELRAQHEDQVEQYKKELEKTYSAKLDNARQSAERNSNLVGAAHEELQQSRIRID

T2: L59R mutant lamin 1 to 300 fragment (human, UniProt P02545 1-300, L59R)
T2 construct: lamin A/C, residues 1-300, with the genetic (laminopathy) mutation L59R; also called L59R-harboring lamin 1 to 300; L59R lamin 1 to 300
T2 sequence (looked up): T1 sequence (looked up) with L59R

B1: A146C mutant lamin 1 to 300 fragment (domain or fragment, human, UniProt P02545 1-300, looked up)
chain: T1 sequence (looked up) with A146C
notes: lamin A/C, residues 1-300; Cys146 forms a disulfide between two coiled-coil dimers within the A11 tetramer; also called lamin 1 to 300 (A146C)
B2: WT lamin 1 to 125 fragment (human lamin A/C, residues 1-125) (domain or fragment, UniProt P02545 1-125, looked up)
chain: METPSQRRATRSGAQASSTPLSPTRITRLQEKEDLQELNDRLAVYIDRVRSLETENAGLRLRITESEEVVSREVSGIKAAYEAELGDARKTLDSVAKERARLQLELSKVREEFKELKARNTKKEG
B3: lamin 1 to 125 fragment T19A/S22A (domain or fragment, human, UniProt P02545 1-125, looked up)
chain: B2 chain with T19A, S22A
notes: also called double mutant
B4: lamin 1 to 125 fragment T19D/S22D (domain or fragment, human, UniProt P02545 1-125, looked up)
chain: B2 chain with T19D, S22D
notes: also called phosphorylation-mimicking dual mutant
B5: lamin 1 to 125 fragment T19A (domain or fragment, human, UniProt P02545 1-125, looked up)
chain: B2 chain with T19A
B6: lamin 1 to 125 fragment S22A (domain or fragment, human, UniProt P02545 1-125, looked up)
chain: B2 chain with S22A
B7: GST-fused lamin 250 to 400 fragment (human lamin A/C residues 250-400) (domain or fragment, UniProt P02545 250-400, looked up)
chain: AQHEDQVEQYKKELEKTYSAKLDNARQSAERNSNLVGAAHEELQQSRIRIDSLSAQLSQLQKQLAAKEAKLRDLEDSLARERDTSRRLLAEKEREMAEMRARMQQQLDEYQELLDIKLALDMEIHAYRKLLEGEEERLRLSPSPTSQRSRG
notes: human lamin A/C, residues 250-400: most of coil 2 (242-385) and a C-terminal flanking region (386-400); also called GST-lamin coil 250-400; lamin C-terminal 250 to 400 fragment; source: E. coli, purified (glutathione-agarose, HiTrap Q, desalting); not shown: GST, N-terminal, kept

How the values were obtained:
lamin A/C 250-400 = lamin A/C 250-400 (UniProt P02545); assay: GST pull-down, SDS-PAGE; details: reference: wild type, CDK1 treated
[1] = target: the molecule itself; assay: cross-linking; disulfide bond between Cys146 of two coiled-coil dimers as read-out of the A11 tetramer; Phos-tag SDS-PAGE with nonreducing loading dye
[2] = target: B7; assay: pull-down; GST-fused coil 2C fragment (5 μM) on GSH-agarose resin with lamin N-terminal fragments (20 μM); 20 mM Tris-HCl pH 7.5, 50 mM NaCl, 1 h at room temperature; eluted with 20 mM GSH; SDS-PAGE or Phos-tag SDS-PAGE; details: both partners purified
[3] = target: T1, WT lamin 1 to 300 fragment (lamin A/C …); assay: as above; details: both partners purified
[4] = target: T2, L59R mutant lamin 1 to 300 fragment; assay: as above; details: both partners purified

binding result [2] | Molecule | further results
– | lamin A/C 1-125 (from UniProt P02545) S22A, CDK1 treated | binding against the reference (lamin A/C 250-400; sites S22): stronger
– | lamin A/C 1-125 (from UniProt P02545) T19A, CDK1 treated | binding against the reference (lamin A/C 250-400; sites T19): stronger
– | B1 | binding result [1]: binds
binds | B2 | –
binds | B3 | –
binds | B4 | –
binds | B5 | –
binds | B6 | –
– | B7 | binding result [3]: binds; binding result [4]: binds

— article PMC9400090, “Cyclin-dependent kinase 1 depolymerizes nuclear lamin filaments by disrupting the head-to-tail interaction of the lamin central rod domain” (The Journal of Biological Chemistry, 2022)
